Results as given in the supplement of paper PMC5998384.

Experiments:
HeLa Kyoto [1] = experiment: solubility change mitosis vs G1/S (difference of NP-40 vs SDS log2 ratios) (log2 ratio difference); higher = more soluble in mitosis
HeLa Kyoto [2] = experiment: solubility in G1/S (NP-40 vs SDS abundance) (log2 ratio); higher = more soluble; conditions: cell cycle stage: G1/S
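For solubility change mitosis vs G1/S (difference of NP-40 vs SDS log2 ratios) in this document: synchronized HeLa Kyoto cells (double thymidine block for G1/S, nocodazole release for mitosis), protein amounts in NP-40 versus SDS lysates quantified by mass spectrometry, three biological replicates.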
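For solubility in G1/S (NP-40 vs SDS abundance) in this document: HeLa Kyoto cells arrested at G1/S by double thymidine block, proteins quantified by TMT10plex mass spectrometry in mild NP-40 versus SDS extracts, three biological replicates.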

Sequence | solubility change mitosis (log2) (HeLa Kyoto [1]) | solubility in G1/S (log2) (HeLa Kyoto [2])
MGNRGMEDLIPLVNRLQDAFSAIGQNADLDLPQIAVVGGQSAGKSSVLENFVGRDFLPRGSGIVTRRPLVLQLVNATTEYAEFLHCKGKKFTDFEEVRLEIEAETDRVTGTNKGISPVPINLRVYSPHVLNLTLVDLPGMTKVPVGDQPPDIEFQIRDMLMQFVTKENCLILAVSPANSDLANSDALKVAKEVDPQGQRTIGVITKLDLMDEGTDARDVLENKLLPLRRGYIGVVNRSQKDIDGKKDITAALAAERKFFLSHPSYRHLADRMGTPYLQKVLNQQLTNHIRDTLPGLRNKLQSQLLSIEKEVEEYKNFRPDDPARKTKALLQMVQQFAVDFEKRIEGSGDQIDTYELSGGARINRIFHERFPFELVKMEFDEKELRREISYAIKNIHGIRTGLFTPDMAFETIVKKQVKKIREPCLKCVDMVISELISTVRQCTKKLQQYPRLREEMERIVTTHIREREGRTKEQVMLLIDIELAYMNTNHEDFIGFANAQQRSNQMNKKKTSGNQDEILVIRKGWLTINNIGIMKGGSKEYWFVLTAENLSWYKDDEEKEKKYMLSVDNLKLRDVEKGFMSSKHIFALFNTEQRNVYKDYRQLELACETQEEVDSWKASFLRAGVYPERVGDKEKASETEENGSDSFMHSMDPQLERQVETIRNLVDSYMAIVNKTVRDLMPKTIMHLMINNTKEFIFSELLANLYSCGDQNTLMEESAEQAQRRDEMLRMYHALKEALSIIGDINTTTVSTPMPPPVDDSWLQVQSVPAGRRSPTSSPTPQRRAPAVPPARPGSRGPAPGPPPAGSALGGAPPVPSRPGASPDPFGPPPQVPSRPNRAPPGVPSRSGQASPSRPESPRPPFDL [DNM1] | -0.0969 | 0.233
MGPKRRQLTFREKSRIIQEVEENPDLRKGEIARRFNIPPSTLSTILKNKRAILASERKYGVASTCRKTNKLSPYDKLEGLLIAWFQQIRAAGLPVKGIILKEKALRIAEELGMDDFTASNGWLDRFRRRHGVVSCSGVARARARNAAPRTPAAPASPAAVPSEGSGGSTTGWRAREEQPPSVAEGYASQDVFSATETSLWYDFLPDQAAGLCGGDGRPRQATQRLSVLLCANADGSEKLPPLVAGKSAKPRAGQAGLPCDYTANSKGGVTTQALAKYLKALDTRMAAESRRVLLLAGRLAAQSLDTSGLRHVQLAFFPPGTVHPLERGVVQQVKGHYRQAMLLKAMAALEGQDPSGLQLGLTEALHFVAAAWQAVEPSDIAACFREAGFGGGPNATITTSLKSEGEEEEEEEEEEEEEEGEGEEEEEEGEEEEEEGGEGEELGEEEEVEEEGDVDSDEEEEEDEESSSEGLEAEDWAQGVVEAGGSFGAYGAQEEAQCPTLHFLEGGEDSDSDSEEEDDEEEDDEDEDDDDDEEDGDEVPVPSFGEAMAYFAMVKRYLTSFPIDDRVQSHILHLEHDLVHVTRKNHARQAGVRGLGHQS [CENPB] | -0.105 | -0.711
MGQCVTKCKNPSSTLGSKNGDREPSNKSHSRRGAGHREEQVPPCGKPGGDILVNGTKKAEAATEACQLPTSSGDAGRESKSNAEESSLQRLEELFRRYKDEREDAILEEGMERFCNDLCVDPTEFRVLLLAWKFQAATMCKFTRKEFFDGCKAISADSIDGICARFPSLLTEAKQEDKFKDLYRFTFQFGLDSEEGQRSLHREIAIALWKLVFTQNNPPVLDQWLNFLTENPSGIKGISRDTWNMFLNFTQVIGPDLSNYSEDEAWPSLFDTFVEWEMERRKREGEGRGALSSGPEGLCPEEQT [DCUN1D3] | -0.131 | 0.0421
MGSAFERVVRRVVQELDHGGEFIPVTSLQSSTGFQPYCLVVRKPSSSWFWKPRYKCVNLSIKDILEPDAAEPDVQRGRSFHFYDAMDGQIQGSVELAAPGQAKIAGGAAVSDSSSTSMNVYSLSVDPNTWQTLLHERHLRQPEHKVLQQLRSRGDNVYVVTEVLQTQKEVEVTRTHKREGSGRFSLPGATCLQGEGQGHLSQKKTVTIPSGSTLAFRVAQLVIDSDLDVLLFPDKKQRTFQPPATGHKRSTSEGAWPQLPSGLSMMRCLHNFLTDGVPAEGAFTEDFQGLRAEVETISKELELLDRELCQLLLEGLEGVLRDQLALRALEEALEQGQSLGPVEPLDGPAGAVLECLVLSSGMLVPELAIPVVYLLGALTMLSETQHKLLAEALESQTLLGPLELVGSLLEQSAPWQERSTMSLPPGLLGNSWGEGAPAWVLLDECGLELGEDTPHVCWEPQAQGRMCALYASLALLSGLSQEPH [GSDMD] | -0.218 | 0.121
